Source: paper PMC10673952, “Stochastic chain termination in bacterial pilus assembly” (Nature Communications, 2023)

T1: FimFt (E. coli)
T1 chain: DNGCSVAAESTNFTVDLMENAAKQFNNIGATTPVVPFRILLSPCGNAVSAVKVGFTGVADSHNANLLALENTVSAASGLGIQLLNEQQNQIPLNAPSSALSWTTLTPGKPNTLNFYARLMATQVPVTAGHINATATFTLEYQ

T2: FimF-FimGt (the two subunits of the ternary FimCHisFG complex) (E. coli, UniProt P08189 21-176; P08190 24-167)
T2 chain 1: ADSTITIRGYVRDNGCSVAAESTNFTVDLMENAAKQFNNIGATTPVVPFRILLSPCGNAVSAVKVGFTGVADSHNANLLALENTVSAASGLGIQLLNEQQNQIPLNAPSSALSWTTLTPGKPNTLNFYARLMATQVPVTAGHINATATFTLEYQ
T2 chain 2: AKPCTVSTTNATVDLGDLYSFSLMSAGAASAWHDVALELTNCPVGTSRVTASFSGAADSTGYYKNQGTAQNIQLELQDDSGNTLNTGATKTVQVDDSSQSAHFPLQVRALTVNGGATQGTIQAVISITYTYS

T3: FimI-FimAtHis (the two subunits of the ternary FimCHisIA complex) (E. coli W3110 | E. coli, UniProt P39264 20-179; P04128 37-182)
T3 construct: also called FimI-FimA part of FimCHisIA
T3 sequence (looked up) 1: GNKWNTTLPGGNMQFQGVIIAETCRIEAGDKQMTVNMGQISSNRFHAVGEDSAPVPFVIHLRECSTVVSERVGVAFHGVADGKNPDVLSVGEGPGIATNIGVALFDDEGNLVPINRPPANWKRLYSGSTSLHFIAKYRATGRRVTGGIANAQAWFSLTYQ
T3 sequence (looked up) 2: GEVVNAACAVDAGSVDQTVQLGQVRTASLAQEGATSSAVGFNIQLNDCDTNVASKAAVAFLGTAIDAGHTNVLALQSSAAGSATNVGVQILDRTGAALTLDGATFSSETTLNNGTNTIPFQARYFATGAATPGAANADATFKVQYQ

B1: FimI (natural protein, E. coli W3110, UniProt P39264 20-179, looked up)
chain: T3 sequence (looked up) 1
notes: also called assembly terminator subunit FimI
B2: FimAt (residues 18-159 of FimA) (domain or fragment, E. coli, UniProt P04128 41-182, looked up)
chain: NAACAVDAGSVDQTVQLGQVRTASLAQEGATSSAVGFNIQLNDCDTNVASKAAVAFLGTAIDAGHTNVLALQSSAAGSATNVGVQILDRTGAALTLDGATFSSETTLNNGTNTIPFQARYFATGAATPGAANADATFKVQYQ
B3: FimC (natural protein, E. coli, UniProt P31697 37-241, looked up)
chain: GVALGATRVIYPAGQKQEQLAVTNNDENSTYLIQSWVENADGVKDGRFIVTPPLFAMKGKKENTLRILDATNNQLPQDRESLFWMNVKAIPSMDKSKLTENTLQLAIISRIKLYYRPAKLALPPDQAAEKLRFRRSANSLTLINPTPYYLTVTELNAGTRVLENALVPPMGESTVKLPSDAGSNITYRTINDYGALTPKMTGVME
notes: also called periplasmic chaperone FimC; untagged FimC; source: in FimCF and FimCG co-expressed in the periplasm of E. coli HM125
B4: FimCHis (FimC with C-terminal hexahistidine tag) (natural protein, E. coli, UniProt P31697 37-241, looked up)
chain: B3 chain
B5: FimAtHis (wild-type FimA missing residues 1-13 but with an N-terminal hexahistidine tag) (domain or fragment, E. coli, UniProt P04128 37-182, looked up)
chain: T3 sequence (looked up) 2
notes: also called FimAt (in the FimCHisIA structure)
B6: FimA (natural protein, E. coli, UniProt P04128 24-182, looked up)
chain: AATTVNGGTVHFKGEVVNAACAVDAGSVDQTVQLGQVRTASLAQEGATSSAVGFNIQLNDCDTNVASKAAVAFLGTAIDAGHTNVLALQSSAAGSATNVGVQILDRTGAALTLDGATFSSETTLNNGTNTIPFQARYFATGAATPGAANADATFKVQYQ
notes: also called main structural pilus subunit FimA; FimA wild-type

Experiments:
[1] = target: B4; assay: crystal structure; conditions: both partners purified
[2] = target: B3; assay: refolding of the subunit with the chaperone and co-purification (cation exchange chromatography, SEC); denatured, disulfide-intact subunit diluted into buffer with an excess of FimC or FimCHis; complex purified by cation exchange and (not for FimCHisI) Superdex 75; FimCA eluted as a 1:1 complex; identity by ESI-MS; conditions: both partners purified
[3] = target: B6; assay: reconstitution by donor strand exchange and co-purification (cation exchange chromatography, SEC); 2 μM FimCA with 10 μM FimCAt at pH 7.0 and 37 °C overnight; FimCAA purified on Resource S and Superdex 75; identity by ESI-MS; conditions: both partners purified
[4] = target: B1; assay: cell-based or functional assay
[5] = target: B6; assay: cell-based or functional assay
[6] = target: B6; assay: chaperone exchange kinetics followed by analytical cation exchange chromatography; 4 μM complex incubated with a 9-fold molar excess (36 μM) of the differently tagged FimC (untagged FimC against FimCHis complexes, FimCHis against FimCA and FimCAA); 20 mM MES-NaOH pH 6.0, 37 °C; single-exponential fit; conditions: both partners purified
[7] = target: T1, FimFt; assay: as above; conditions: both partners purified
[8] = target: T2, FimF-FimGt (the two subunits of the …); assay: as above; conditions: both partners purified
[9] = target: T3, FimI-FimAtHis (the two subunits of the …); assay: as above; conditions: both partners purified
[10] = target: B1; assay: as above; conditions: both partners purified
[11] = target: B1; assay: crystal structure; conditions: both partners purified
[12] = target: B4; assay: crystal structure; FimCHis-FimI-FimAtHis complex, 2.8 Å, space group P6(1), two complexes in the asymmetric unit, crystals at 293 K from 0.8 M sodium formate, 100 mM Tris/acetic acid pH 8.5, 16% PEG 4000; conditions: both partners purified

Binder: B1
- binding result [1]: binds
- binding result [2]: binds

Binder: B2
- binding result [3]: binds
- binding result [2]: binds

Binder: B3
- FimC-catalyzed folding of oxidized, unfolded FimI, rate constant by stopped-flow tryptophan fluorescence (pseudo-first-order fit, pH 8.0) [4]: 73000 M^−1 s^−1
- FimC-catalyzed folding of oxidized, unfolded FimA, rate constant by stopped-flow tryptophan fluorescence (pseudo-first-order fit, pH 8.0) [5]: 43000 M^−1 s^−1
- dissociation half-life [6]: 26 ± 1 s

Binder: B4
- dissociation half-life [7]: 1.58 ± 0.14 h
- dissociation half-life [8]: 1.41 ± 0.12 h
- dissociation half-life [9]: 3.85 ± 0.43 h
- dissociation half-life [10]: 1.05 ± 0.095 min

Binder: B5
- binding result [11]: binds
- binding result [12]: binds

Binder: B6
- binding result [2]: binds
